Experimental data from PMC3781045.

Target: T1, rZur (ZurPA, Np20) (Pseudomonas aeruginosa PAO1?) (UniProt Q9HT74)
T1 sequence: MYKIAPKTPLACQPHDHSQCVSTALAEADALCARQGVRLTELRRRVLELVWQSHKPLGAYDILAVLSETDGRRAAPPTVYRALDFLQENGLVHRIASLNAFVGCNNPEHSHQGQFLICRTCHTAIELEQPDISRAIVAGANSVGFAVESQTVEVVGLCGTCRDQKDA
Assay: EMSA
Conditions: 10 mM Tris-HCl pH 8.0, 40 mM KCl, 10 mM MgCl2, 1 mM DTT, 5% glycerol, 1 uM ZnCl2, 0.5 ug salmon sperm DNA; room temperature 30 min; gel at 4 C

For “CGGCGAAGCCAGCAGGAACAGGGCGAAGCAGGCGGACAGCAGGGCAAAGGGACGCAGGGTCACGGCGGCACTCACATGAAAGGTGGTTAGCGGGTAATATAATAACGTCTCTACCCTCGAGCGTCGCAGCCCATGTACAAGATTGCGCCCAAGACCCCGCTGGCCTGCCAGCCCCATGACCACAGCCAGTGCGTCAGCA (double strand) [znuA promoter fragment]”, the binding was “binds”.
